Assay results published in article PMC8811837 (Advanced Science, 2021).

Target: T1, σ70 (E. coli, UniProt P00579)
T1 construct: also called σR4 (region 4); σ70 R4
Assay: cryo-EM structure
Details: both partners purified

T1 sequence (P00579 whole entry): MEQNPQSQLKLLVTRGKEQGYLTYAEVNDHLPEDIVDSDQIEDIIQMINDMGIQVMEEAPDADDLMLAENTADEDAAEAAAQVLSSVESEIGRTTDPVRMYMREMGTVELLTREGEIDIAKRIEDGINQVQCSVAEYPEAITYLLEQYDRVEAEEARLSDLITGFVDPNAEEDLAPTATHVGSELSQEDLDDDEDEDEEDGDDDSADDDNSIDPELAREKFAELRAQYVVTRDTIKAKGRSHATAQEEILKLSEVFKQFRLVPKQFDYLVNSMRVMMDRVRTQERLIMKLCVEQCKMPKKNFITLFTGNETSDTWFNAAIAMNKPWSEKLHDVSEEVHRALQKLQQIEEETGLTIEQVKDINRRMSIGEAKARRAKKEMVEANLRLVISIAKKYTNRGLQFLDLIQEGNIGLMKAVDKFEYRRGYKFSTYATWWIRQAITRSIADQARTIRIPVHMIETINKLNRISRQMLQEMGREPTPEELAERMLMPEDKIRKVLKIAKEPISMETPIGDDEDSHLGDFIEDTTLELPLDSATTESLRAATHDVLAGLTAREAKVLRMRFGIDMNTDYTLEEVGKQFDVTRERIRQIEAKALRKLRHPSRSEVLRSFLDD

B1: RamA (natural protein)
chain: MTISAQVIDTIVEWIDDNLHQPLRIDDIARHAGYSKWHLQRLFLQYKGESLGRYIRERKLLLAARDLRDTDQRVYDICLKYGFDSQQTFTRVFTRTFNQPPGAYRKENHSRAH
binding result: binds
